US20210087268A1 (YUHAN, published 2021)
Values belong to the binder of their own block, whether it stands above or below them.

Experiments:
[1] = molecular target: T1, CD155 (Sinobiological), ELISA antigen (UniProt P15151 21-343); experiment: ELISA, antigen coated at 100 ng/well, 30 ng antibody per well (one amount), absorbance 450 nm
T1 sequence (looked up): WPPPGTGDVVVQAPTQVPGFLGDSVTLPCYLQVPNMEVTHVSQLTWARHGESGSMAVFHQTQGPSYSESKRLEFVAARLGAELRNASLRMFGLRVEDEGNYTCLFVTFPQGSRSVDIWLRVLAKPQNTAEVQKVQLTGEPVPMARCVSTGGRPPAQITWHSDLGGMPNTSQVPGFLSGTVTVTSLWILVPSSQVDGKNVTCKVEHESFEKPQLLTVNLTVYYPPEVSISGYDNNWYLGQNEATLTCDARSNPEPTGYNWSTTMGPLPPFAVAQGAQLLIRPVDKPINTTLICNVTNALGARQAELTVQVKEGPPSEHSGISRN
Description: (§1) The binding of the anti-TIGIT antibodies to TIGIT superfamilies such as CD96 (Sinobiological), CD155 (Sinobiological), CD112 (R&D Systems), CD113 (R&D Systems) and CD226 (R&D Systems) antigens was identified by ELISA in order to determine the TIGIT specificity of the anti-TIGIT antibodies screened by phage display screening. Six types of antigens including TIGIT were coated at 100 ng/well on a 96-well plate, treated with 30 ng of each screened antibody and incubated at room temperature for 1 hour. After washing three times with TBST, 30 μL of TBST (5% BSA) diluted at 1:3,000 with an anti-human Fab-HRP secondary antibody (Jackson) was added to each well and incubated at room temperature for 1 hour. After washing three times with TBST, 30 μL of the resulting TMB solution was added to each well. After ceasing the reaction with 1N H₂SO₄, color development was determined at an absorbance of 450 nm. The binding of the selected antibodies to the six antigens was identified. As a result, it can be seen that all the antibodies specifically bound only to the TIGIT antigen (FIG. 2).

CD112 (R&D Systems) = molecular target: T2, CD112 (R&D Systems) (UniProt Q92692 32-360, limits assumed); experiment: as above
T2 sequence (looked up): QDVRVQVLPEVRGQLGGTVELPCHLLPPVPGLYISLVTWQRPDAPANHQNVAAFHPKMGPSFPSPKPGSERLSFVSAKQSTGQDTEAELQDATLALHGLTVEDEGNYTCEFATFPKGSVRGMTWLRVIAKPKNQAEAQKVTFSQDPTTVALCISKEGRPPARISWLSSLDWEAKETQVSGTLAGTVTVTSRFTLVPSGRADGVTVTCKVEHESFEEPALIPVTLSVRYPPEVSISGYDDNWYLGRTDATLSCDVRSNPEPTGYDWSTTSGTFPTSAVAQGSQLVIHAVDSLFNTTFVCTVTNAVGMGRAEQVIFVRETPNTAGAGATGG
Description: as §1

CD96 (Sinobiological) = molecular target: T3, CD96 (Sinobiological) (UniProt P40200-2 22-503, limits assumed); experiment: as above
T3 sequence (looked up): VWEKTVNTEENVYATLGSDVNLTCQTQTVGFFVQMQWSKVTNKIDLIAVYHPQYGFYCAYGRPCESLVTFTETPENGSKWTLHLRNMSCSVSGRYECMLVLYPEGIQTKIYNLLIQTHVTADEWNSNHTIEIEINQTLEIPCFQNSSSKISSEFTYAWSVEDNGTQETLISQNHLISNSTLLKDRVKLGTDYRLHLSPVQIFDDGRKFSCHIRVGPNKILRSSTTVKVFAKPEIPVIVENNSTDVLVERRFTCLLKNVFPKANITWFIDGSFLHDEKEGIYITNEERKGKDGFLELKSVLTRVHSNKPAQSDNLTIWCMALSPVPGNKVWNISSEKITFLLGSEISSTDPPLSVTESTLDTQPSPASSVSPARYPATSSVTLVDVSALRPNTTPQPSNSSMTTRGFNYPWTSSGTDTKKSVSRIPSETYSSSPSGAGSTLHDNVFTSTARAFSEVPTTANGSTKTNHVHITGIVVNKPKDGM
Description: as §1

CD113 (R&D Systems) = CD113 (R&D Systems) (UniProt Q9NQS3 58-404, limits assumed); experiment: as above
Sequence of CD113 (R&D Systems) (Q9NQS3 58-404 limits assumed): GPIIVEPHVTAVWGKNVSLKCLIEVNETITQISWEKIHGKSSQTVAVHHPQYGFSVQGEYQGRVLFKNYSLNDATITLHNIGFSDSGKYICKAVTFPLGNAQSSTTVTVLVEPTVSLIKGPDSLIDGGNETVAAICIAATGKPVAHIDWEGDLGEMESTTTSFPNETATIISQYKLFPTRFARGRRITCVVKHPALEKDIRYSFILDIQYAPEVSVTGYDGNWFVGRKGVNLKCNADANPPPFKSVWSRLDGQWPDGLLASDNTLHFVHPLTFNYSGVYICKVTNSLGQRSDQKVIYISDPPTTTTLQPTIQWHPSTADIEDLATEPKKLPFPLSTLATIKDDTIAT
Description: as §1

CD226 (R&D Systems) = molecular target: T4, CD226 (R&D Systems) (UniProt Q15762 19-247, limits assumed); experiment: as above
T4 sequence (looked up): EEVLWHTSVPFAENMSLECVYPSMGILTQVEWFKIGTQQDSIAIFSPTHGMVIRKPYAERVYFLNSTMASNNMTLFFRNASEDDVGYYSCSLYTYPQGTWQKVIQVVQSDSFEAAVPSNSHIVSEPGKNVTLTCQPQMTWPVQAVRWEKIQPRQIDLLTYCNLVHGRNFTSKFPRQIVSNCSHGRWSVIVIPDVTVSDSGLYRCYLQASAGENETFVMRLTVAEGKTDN
Description: as §1

[2] = molecular target: T5, mouse TIGIT (R & D Systems), ELISA antigen (mouse, UniProt P86176 29-148, limits assumed); experiment: ELISA, antigen coated on the plate, 30 ng antibody per well (one amount), absorbance 450 nm
T5 sequence (looked up): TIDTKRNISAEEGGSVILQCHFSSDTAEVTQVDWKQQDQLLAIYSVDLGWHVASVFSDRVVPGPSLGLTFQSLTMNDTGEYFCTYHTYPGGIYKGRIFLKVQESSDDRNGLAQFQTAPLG
Text: In order to determine the species cross-reactivity of the anti-TIGIT antibodies screened by phage display screening, whether or not the anti-TIGIT antibodies bound to human TIGIT (R&D Systems), mouse TIGIT (R & D Systems) and rhesus TIGIT antigens was identified by ELISA. The rhesus TIGIT antigens used herein were expressed and purified in the form of Fc-fusion by gene synthesis with reference to the Rhesus TIGIT gene sequence (NCBI accession No. XP_014985303.1). Each of three types of the TIGIT antigens diluted at a concentration of […] in PBS was added at 30 μl/well to a 96-well plate and incubated overnight at 4° C. to induce coating. Then, 30 ng of the screened antibody was bound to the TIGIT antigen, and 30 μL of a TBST (5% BSA) solution diluted at 1:3,000 was added to each well and incubated at room temperature for 1 hour. After washing three times with TBST, 30 μL of the TMB solution was added to each well to induce color development. After ceasing the reaction with 1N H₂SO₄, color development was determined at an absorbance of 450 nm. The species cross-reactivity of the screened antibodies bound to […] of antigens was identified (FIG. 1).

binding result [1]: no binding (tested: 30 ng per well)
binding result (CD112 (R&D Systems)): no binding (tested: 30 ng per well)
binding result (CD96 (Sinobiological)): no binding (tested: 30 ng per well)
binding result (CD113 (R&D Systems)): no binding (tested: 30 ng per well)
binding result (CD226 (R&D Systems)): no binding (tested: 30 ng per well)
binding result [2]: binds
B1: S64 (IgG1 form) (antibody, V domains shown)
VH: EVQLLESGGGLVQPGGSLRLSCAASGFTFSNYAMSWVRQAPGKGLEWVSAIYPGGGSIYYADSVKGRFTISRDNSKNTLYLQMNSLRAEDTAVYYCAKAIRTCSLSHCYYYYGMDVWGQGTLVTVSS
VL: QSVLTQPPSASGTPGQRVTISCSCSSSNIGNNAVSWYQQLPGTAPKLLIYYDSNRPSGVPDRFSGSKSGTSASLAISGLRSEDEADYYCGSWDYSLSAYVFGGGTKLTVLG

binding result [1]: no binding (tested: 30 ng per well)
binding result (CD112 (R&D Systems)): no binding (tested: 30 ng per well)
binding result (CD96 (Sinobiological)): no binding (tested: 30 ng per well)
binding result (CD113 (R&D Systems)): no binding (tested: 30 ng per well)
binding result (CD226 (R&D Systems)): no binding (tested: 30 ng per well)
binding result [2]: binds
B2: F04 (IgG1 form) (antibody, V domains shown)
VH: EVQLLESGGGLVQPGGSLRLSCAASGFTFSSYYMSWVRQAPGKGLEWVSSIGSYYTYYADSVKGRFTISRDNSKNTLYLQMNSLRAEDTAVYYCARSSYSGGNGYYYYAYAFDYWGQGTLVTVSS
VL: EIVLTQSPGTLSLSPGERATLSCRASQSVSSSYLAWYQQKPGQAPRLLIYGASSRATGIPDRFSGSGSGTDFTLTISRLEPEDFAVYYCQQGYHRYATFGQGTKVEIK
